Results reported in the supplement of paper PMC10567573.

B1: SFRS1 (parent)
chain: RDIDLKNRRGGPPFAFVEFEDPRD

Variants of: B1
Experiment: protein stability index of a GFP-peptide fusion (GPS, HEK-293T) (PSI 1-6); higher = more stable
Settings: c terminus: a fixed tail appended
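Note: lentivirally expressed fusions sorted by FACS into six bins by GFP to DsRed ratio, PSI derived from sequencing read proportions per bin multiplied by bin number.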

Protein stability index of substitutions, site by site:
P12: H 4.53; Q 4.17; M 3.93; R 3.93; N 4.72; I 3.13; F 3.5; D 5.06; L 3.5; V 3.9; W 3.43; Y 3.98; C 4.13; K 4.42; S 4; E 4.72; T 4.37; A 4.12; G 4.39
F14: I 4.37; H 5.01; N 4.58; L 3.92; Y 4.28; W 3.77; P 5.05; Q 5.27; D 4.86; E 5.48; K 4.51; T 4.9; S 5.3; V 4.55; R 4.66; M 4.26; A 5.04; C 4.91; G 4.92
R9: P 4.16; M 4.04; W 4.23; Q 4.11; T 4.03; Y 3.91; S 4.12; L 4.27; K 3.69; N 4.5; V 4.21
G10: Y 3.19; L 3.51; E 4.2; D 4.15; C 3.22; T 4.3; N 3.63; K 3.42; Q 4.18; I 3.41; F 3.9; A 3.76; W 2.77; V 3.71; S 4.21; H 3.85; P 3.73; R 2.96; M 3.51
A15: Y 3.56; G 4.63; N 4.73; F 3.12; I 3.42; C 3.83; S 4.22; K 4.56; H 4.46; L 3.76; M 3.84; V 3.58; P 4.31; R 2.25; W 3.7; Q 4.79; D 4.44; T 4.54; E 5.13
V17: A 4.35; E 4.95; W 3.92; G 4.43; H 4.38; S 4.16; K 4.62; N 4.62; R 4.33; Q 4.61; L 4.13; M 4.24; T 4.75; Y 4.42; F 4.64; C 4.2; D 4.77; I 3.97; P 4.63
E18: F 1.81; A 2.18; D 3.22; C 2.4
F16: Q 5; H 4.77; K 4.89; P 5.26; L 4.81; S 4.7; M 4.88; D 5.04; W 3.97; T 4.96; C 4.45; V 4.62; I 4.36; G 5.32; E 5.2; Y 4.26; A 5.03; N 4.91; R 5
G11: H 3.52; K 3.78; C 3.77; E 4.47; L 2.21; S 4.17; N 3.83; V 3.89; I 3; D 4.23; R 3.25; F 3; P 3.36; W 3.1; A 4.11; T 3.87; M 2.61; Q 3.47; Y 3.28
P13: H 4.65; N 4.59; K 4.02; Y 4; F 3.42; G 3.86; R 4.23; E 4.83; A 4.62; Q 4.79; M 4.02; D 4.58; C 4.51; V 3.37; S 4.57; L 3.28; I 3.34; T 4.34; W 3.39
